Measurements published in paper doi:10.1101/2025.09.30.679617 (bioRxiv, 2025).
Numbering of substitutions follows the chain as printed. Ends that are not written are not given here.

T1: PfCSP junctional peptide 21 (Plasmodium falciparum, strain not …, also: biotinylated, position not given here)
T1 chain: NPDPNANPNVDPNAN

B1: SFR1 (antibody, V domains shown)
VH: QVHLVQSGAEVKKPGASVKVSCKASGYTFSRYAIHWVRQAPGQRLEWMGWIKGGNGDTRYSQKFQDRVTITRDTSASTVYMDLSSLRSEDTAVYYCALLTVIRKDDTFDVWGQGTMVTVSS
VL: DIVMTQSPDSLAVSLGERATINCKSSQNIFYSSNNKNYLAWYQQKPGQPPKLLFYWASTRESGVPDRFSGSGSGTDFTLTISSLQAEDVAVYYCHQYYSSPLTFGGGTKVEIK
B2: SFR2 (antibody, V domains shown)
VH: B1 VH with D82E, Y95F
VL: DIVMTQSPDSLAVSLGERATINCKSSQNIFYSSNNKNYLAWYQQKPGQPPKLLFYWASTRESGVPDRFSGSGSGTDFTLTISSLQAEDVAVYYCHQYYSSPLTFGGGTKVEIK
B3: SFR4 (antibody, V domains shown)
VH: B1 VH with R31T, D66G, D82E, K104L, D106E
VL: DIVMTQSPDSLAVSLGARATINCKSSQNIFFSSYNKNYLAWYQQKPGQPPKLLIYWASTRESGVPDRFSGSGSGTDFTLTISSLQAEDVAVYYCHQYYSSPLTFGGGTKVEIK
B4: SFR6 (antibody, V domains shown)
VH: QVHLVQSGAEVKKPGASVKVSCKASGYTFSSYAIHWVRQAPGQRLDWMGWIKGGNGDTRYSETFQDRVTISRDTSATTVYMELSSLRSEDTAMYFCALLTVIRRDDTFDIWGQGTMVTVSS
VL: DIVLTQSPDSLAVSLGERATINCKSSQNIFFNSNKKNYLAWYQQKPRQPPKLLFYWASTRESGVPDRFSGSGSGTDFTLTISSLQAEDVAVYYCHQFYSTPLTFGGGTKVEIK
B5: Run1_Seq1 (antibody, V domains shown)
VH: QVQLVQSGTEVKKPGASVKVSCKASGYTFTSYAIHWVRQAPGQRLEWMGWIKVGNGNTRYSQKFQGRVTITRDTSASTAYMELSSLRSEDTAVYYCALLTVLTADDAFDFWGQGTMVTVSS
VL: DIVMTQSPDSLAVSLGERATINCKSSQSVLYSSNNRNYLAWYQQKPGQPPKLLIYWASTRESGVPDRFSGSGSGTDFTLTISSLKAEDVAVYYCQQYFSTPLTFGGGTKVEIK
B6: Run1_Seq2 (antibody, V domains shown)
VH: B5 VH with S77N, A104P
VL: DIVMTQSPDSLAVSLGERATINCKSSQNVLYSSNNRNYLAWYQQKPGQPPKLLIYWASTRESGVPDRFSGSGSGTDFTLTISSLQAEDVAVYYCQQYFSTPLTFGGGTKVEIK
B7: Run2_Seq1 (antibody, V domains shown)
VH: B5 VH with T9A, V53A, I70L, S84N, L102V, A104P, A107V, F110I
VL: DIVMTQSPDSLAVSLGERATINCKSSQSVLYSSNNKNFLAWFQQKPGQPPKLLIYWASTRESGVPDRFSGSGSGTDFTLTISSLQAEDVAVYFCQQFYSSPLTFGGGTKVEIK
B8: Run2_Seq2 (antibody, V domains shown)
VH: B5 VH with T9A, S31N, V53A, G66D, I70L, Y80F, L102V, A104P, F110I, M116L
VL: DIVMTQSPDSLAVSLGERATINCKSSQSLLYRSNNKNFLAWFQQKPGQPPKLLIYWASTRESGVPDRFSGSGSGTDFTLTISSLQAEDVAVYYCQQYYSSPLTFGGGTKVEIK
B9: Run3_Seq1 (antibody, V domains shown)
VH: B5 VH with T9A, K12R, S31T, V53A, G54D, S75F, L102V, A104P, A107T, F110I
VL: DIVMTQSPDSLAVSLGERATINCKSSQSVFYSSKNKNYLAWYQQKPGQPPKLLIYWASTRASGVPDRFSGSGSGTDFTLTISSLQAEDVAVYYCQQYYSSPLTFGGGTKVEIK
B10: Run3_Seq2 (antibody, V domains shown)
VH: QVQLVQSGAEVRKPGASVKVSCKASGYTFTTYAIHWVRQAPGQRLEWMGWIKGGNGDTRYSQKFQGRLTITRDTFASTAYMELSSLRSEDTAVYYCALLTVVTPDDTFDIWGQGTMVTVSS
VL: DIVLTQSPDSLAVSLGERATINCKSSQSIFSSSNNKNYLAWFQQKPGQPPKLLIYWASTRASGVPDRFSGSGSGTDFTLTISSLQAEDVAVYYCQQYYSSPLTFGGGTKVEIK
B11: Run4_Seq1 (antibody, V domains shown)
VH: B5 VH with V53A, A79V, L102I, A104P, F110V
VL: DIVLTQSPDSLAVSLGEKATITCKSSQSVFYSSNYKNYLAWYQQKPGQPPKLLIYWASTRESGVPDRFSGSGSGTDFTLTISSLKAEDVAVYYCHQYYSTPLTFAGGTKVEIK
B12: Run4_Seq2 (antibody, V domains shown)
VH: B5 VH with I34V, V53A, A79V, L102I, A104P, F110V
VL: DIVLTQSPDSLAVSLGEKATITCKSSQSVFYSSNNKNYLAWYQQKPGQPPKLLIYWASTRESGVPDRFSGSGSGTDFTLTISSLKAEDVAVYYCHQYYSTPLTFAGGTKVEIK
B13: Run5_Seq1 (antibody, V domains shown)
VH: B5 VH with T9A, V53A, N55K, V68I, A79V, S84N, L102I, A104P, D106Y, F110I
VL: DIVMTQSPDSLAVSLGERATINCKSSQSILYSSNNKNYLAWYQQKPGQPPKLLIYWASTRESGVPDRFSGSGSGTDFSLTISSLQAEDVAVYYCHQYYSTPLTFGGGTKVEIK
B14: Run5_Seq2 (antibody, V domains shown)
VH: B5 VH with T9A, V53A, V68I, L102I, A104P, D106Y, F110I
VL: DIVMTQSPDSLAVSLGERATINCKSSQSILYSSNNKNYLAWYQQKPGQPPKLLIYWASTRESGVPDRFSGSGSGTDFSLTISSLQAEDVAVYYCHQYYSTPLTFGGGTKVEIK
B15: Run6_Seq1 (antibody, V domains shown)
VH: QVQLVQSGAEVRKPGASVKVSCKASGYTFTRYAIHWVRQAPGQRLEWMGWIKAGNGNTRYSQKFQGRVSIIRDTSASTVYMDLSGLRSEDTAVYYCALLTVITPDDAFDIWGQGTMVTVSS
VL: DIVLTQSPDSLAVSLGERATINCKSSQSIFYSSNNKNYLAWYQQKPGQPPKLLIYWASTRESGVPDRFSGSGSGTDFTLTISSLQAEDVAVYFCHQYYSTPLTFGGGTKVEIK
B16: Run6_Seq2 (antibody, V domains shown)
VH: B15 VH with K63N, V79A
VL: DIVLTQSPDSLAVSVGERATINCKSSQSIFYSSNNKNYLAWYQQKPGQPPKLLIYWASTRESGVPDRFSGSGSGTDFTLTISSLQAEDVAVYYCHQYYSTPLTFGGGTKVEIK
B17: Run7_Seq1 (antibody, V domains shown)
VH: B5 VH with T9A, S31K, I34M, M48L, V53A, K63R, G66D, L102I, A104P, F110I
VL: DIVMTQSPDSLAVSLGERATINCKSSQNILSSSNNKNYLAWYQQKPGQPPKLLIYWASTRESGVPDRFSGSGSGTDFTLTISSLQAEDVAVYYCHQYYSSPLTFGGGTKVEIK
B18: Run7_Seq2 (antibody, V domains shown)
VH: B5 VH with T9A, I34M, M48L, V53A, K63R, R72G, S84R, L102I, A104P, F110I
VL: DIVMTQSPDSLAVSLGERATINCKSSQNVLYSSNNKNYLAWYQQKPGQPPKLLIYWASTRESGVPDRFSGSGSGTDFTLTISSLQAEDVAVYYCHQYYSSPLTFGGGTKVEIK

Target: T1, PfCSP junctional peptide 21

Binder | binding result
B1 | binds
B2 | binds
B3 | binds
B4 | binds
B5 | binds
B6 | binds
B7 | binds
B8 | binds
B9 | binds
B10 | binds
B11 | binds
B12 | binds
B13 | binds
B14 | binds
B15 | binds
B16 | binds
B17 | binds
B18 | binds
